In patent US20240239915A1 (Zymeworks, published 2024):
Read-outs that look alike come from different tables or passages of the source.

Assays:
[1] = biological target: T1, Recombinant Human Fc gamma RIIIB/CD16b Protein (R&D Systems), His-tagged (human, UniProt O75015 20-208); assay: SPR (Biacore T200); receptor immobilized directly on CM5 chip, antibody as analyte at 4.7 µM
T1 construct: also called human FcγRIIIb; hFcγRIIIb
T1 chain: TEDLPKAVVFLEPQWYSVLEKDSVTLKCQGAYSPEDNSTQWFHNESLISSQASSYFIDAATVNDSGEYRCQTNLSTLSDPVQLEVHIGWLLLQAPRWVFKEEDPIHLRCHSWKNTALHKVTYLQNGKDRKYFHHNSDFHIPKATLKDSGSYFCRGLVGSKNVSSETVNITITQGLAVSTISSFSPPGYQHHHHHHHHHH

[2] = biological target: T2, Recombinant Human Fc gamma RIIIA/CD16a protein (R&D Systems), His-tagged (human, UniProt P08637 17-208); assay: as above
T2 construct: also called human FcγRIIIa; hFcγRIIIa
T2 sequence (P08637 other isoform, or with tags, fused parts or gaps): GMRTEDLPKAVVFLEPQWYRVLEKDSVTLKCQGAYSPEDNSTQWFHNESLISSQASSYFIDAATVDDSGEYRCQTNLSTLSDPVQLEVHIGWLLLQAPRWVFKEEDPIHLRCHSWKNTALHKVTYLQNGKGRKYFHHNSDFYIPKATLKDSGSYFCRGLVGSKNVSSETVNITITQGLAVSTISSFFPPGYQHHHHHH

[3] = biological target: T3, Recombinant Human Fc gamma RIIB/C (CD32b/c) Protein (R&D Systems), His-tagged (human, UniProt P31994 46-217); assay: as above
T3 construct: also called human FcγRIIb/c; hFcγRIIb/c
T3 sequence: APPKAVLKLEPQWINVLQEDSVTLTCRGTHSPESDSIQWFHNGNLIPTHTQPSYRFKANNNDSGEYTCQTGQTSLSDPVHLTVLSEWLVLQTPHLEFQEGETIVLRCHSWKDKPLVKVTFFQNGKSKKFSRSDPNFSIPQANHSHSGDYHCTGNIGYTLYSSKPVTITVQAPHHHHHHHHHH

[4] = biological target: T4, Recombinant Human Fc gamma RI/CD64 Protein, CF (R&D Systems), His-tagged (human, UniProt P12314 16-288); assay: SPR (Biacore T200): His-tagged human FcγRI captured on an anti-His antibody chip, antibody as analyte; RU plotted against antibody concentration
T4 construct: also called human FcγRI; hFcγRI
T4 sequence (P12314 other isoform, or with tags, fused parts or gaps): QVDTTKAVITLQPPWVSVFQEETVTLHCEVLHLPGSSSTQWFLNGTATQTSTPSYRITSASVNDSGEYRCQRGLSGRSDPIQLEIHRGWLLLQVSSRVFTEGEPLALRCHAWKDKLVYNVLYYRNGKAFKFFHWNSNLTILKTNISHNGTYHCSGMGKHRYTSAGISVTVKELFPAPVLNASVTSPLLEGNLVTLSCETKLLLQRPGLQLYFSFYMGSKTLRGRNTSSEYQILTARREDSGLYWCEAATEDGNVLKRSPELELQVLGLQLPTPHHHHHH

[5] = biological target: T4, Recombinant Human Fc gamma RI/CD64 …; assay: SPR (Biacore T200), RU at 4.7 µM antibody, anti-CD70 antibody vorsetuzumab
[6] = biological target: T5, Recombinant Human Fc gamma RIIA/CD32a (H167) Protein (R&D Systems), His-tagged (human, UniProt P12318 34-218); assay: SPR (Biacore T200), RU at 4.7 µM antibody
T5 construct: also called human FcγRIIa (H167); hFcγRIIa (H167)
T5 sequence: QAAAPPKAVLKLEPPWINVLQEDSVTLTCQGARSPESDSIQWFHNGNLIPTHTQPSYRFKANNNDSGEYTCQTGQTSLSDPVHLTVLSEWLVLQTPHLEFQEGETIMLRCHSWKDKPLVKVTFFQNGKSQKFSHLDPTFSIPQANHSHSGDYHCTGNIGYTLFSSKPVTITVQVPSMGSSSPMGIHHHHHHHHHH

[7] = biological target: T4, Recombinant Human Fc gamma RI/CD64 …; assay: SPR (Biacore T200), RU at 4.7 µM antibody
[8] = biological target: T6, human FcRn (human neonatal Fc receptor large subunit p51 and beta2-microglobulin), biotinylated (human, UniProt P55899 24-297; P61769 21-119, biotinylated (site not stated)); assay: BLI (Octet RED384), biotinylated FcRn on streptavidin biosensor, binding at pH 6.0, dissociation at pH 7.4
T6 sequence (P55899 24-297 limits assumed, chain 1 of 2): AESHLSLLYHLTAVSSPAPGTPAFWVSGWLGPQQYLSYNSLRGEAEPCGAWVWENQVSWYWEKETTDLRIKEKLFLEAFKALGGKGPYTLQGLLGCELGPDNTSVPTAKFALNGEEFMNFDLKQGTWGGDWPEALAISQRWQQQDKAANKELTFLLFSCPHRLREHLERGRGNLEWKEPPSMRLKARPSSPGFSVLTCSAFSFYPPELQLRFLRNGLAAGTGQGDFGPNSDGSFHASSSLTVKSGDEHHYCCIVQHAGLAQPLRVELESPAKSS
T6 sequence (P61769 21-119 limits assumed, chain 2 of 2): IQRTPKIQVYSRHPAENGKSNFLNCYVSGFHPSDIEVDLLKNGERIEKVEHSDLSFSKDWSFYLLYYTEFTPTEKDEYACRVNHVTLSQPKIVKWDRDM

[9] = biological target: T6, human FcRn (human neonatal Fc receptor …); assay: BLI (Octet RED384), biotinylated FcRn on streptavidin biosensor, binding and dissociation at pH 6.0
[10] = biological target: T7, Recombinant Cynomolgus Fc gamma RIII/CD16 Protein (R&D Systems), His-tagged (cynomolgus, UniProt Q8SPW2 17-208); assay: SPR (Biacore T200); receptor immobilized directly on CM5 chip, antibody as analyte at 4.7 µM
T7 construct: also called cynomolgus FcγRIII; cFcγRIII
T7 chain: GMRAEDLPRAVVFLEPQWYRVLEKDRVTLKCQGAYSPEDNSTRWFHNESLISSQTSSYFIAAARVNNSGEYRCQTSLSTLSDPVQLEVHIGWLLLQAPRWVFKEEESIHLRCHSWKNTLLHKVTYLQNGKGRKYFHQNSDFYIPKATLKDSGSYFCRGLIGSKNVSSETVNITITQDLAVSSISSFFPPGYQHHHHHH

[11] = biological target: T8, Recombinant Cynomolgus Fc gamma RIIB protein (R&D Systems), His-tagged (cynomolgus); assay: as above
T8 construct: also called cynomolgus FcγRIIb; cFcγRIIb
T8 chain: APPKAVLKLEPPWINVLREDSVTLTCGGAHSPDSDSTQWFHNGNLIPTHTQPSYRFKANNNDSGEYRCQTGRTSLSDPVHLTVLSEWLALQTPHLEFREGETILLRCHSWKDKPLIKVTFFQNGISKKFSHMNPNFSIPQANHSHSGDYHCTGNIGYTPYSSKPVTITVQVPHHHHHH

[12] = biological target: T9, Recombinant Cynomolgus Fc gamma RIIA/CD32a Protein (R&D Systems), His-tagged (cynomolgus); assay: as above
T9 construct: also called cynomolgus FcγRIIa; cFcγRIIa
T9 chain: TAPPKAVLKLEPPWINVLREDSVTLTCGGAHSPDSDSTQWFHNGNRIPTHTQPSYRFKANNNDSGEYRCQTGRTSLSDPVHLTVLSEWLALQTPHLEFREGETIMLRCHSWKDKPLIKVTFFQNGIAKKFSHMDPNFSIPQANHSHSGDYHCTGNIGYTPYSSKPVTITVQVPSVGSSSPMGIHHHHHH

[13] = biological target: T1, Recombinant Human Fc gamma RIIIB/CD16b …; assay: as above
[14] = biological target: T5, Recombinant Human Fc gamma RIIA/CD32a …; assay: as above
[15] = biological target: T2, Recombinant Human Fc gamma RIIIA/CD16a …; assay: as above; remark: listed apart in the source
[16] = biological target: T3, Recombinant Human Fc gamma RIIB/C …; assay: as above; remark: listed apart in the source
[17] = biological target: T10, Recombinant Human Fc gamma RIIIA/CD16a (V176F) Protein (R&D Systems), His-tagged (human, UniProt P08637 17-208); assay: as above
T10 construct: no further substitution applied; also called human FcγRIIIa (V176F); hFcγRIIIa (V176F)
T10 sequence (P08637 other isoform, or with tags, fused parts or gaps V176F V176F): as the sequence (P08637 other isoform, or with tags, fused parts or gaps) above, with V160F counted along it

[18] = biological target: T11, Recombinant Human Fc gamma RIIA/CD32a (R167) Protein (R&D Systems), His-tagged (human, UniProt P12318 36-218); assay: as above
T11 construct: also called human FcγRIIa; hFcγRIIa
T11 chain: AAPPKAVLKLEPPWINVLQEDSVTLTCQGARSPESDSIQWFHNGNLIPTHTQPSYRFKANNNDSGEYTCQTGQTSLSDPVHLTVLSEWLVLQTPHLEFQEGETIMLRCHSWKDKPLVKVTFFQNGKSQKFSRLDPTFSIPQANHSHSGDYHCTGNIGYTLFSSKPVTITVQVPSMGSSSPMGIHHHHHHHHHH

[19] = biological target: T4, Recombinant Human Fc gamma RI/CD64 …; assay: SPR (Biacore T200); His-tagged receptor captured on anti-His antibody chip, antibody as analyte at 4.7 µM; reference: LALA variant of the same antibody (anti-LPS O11-1111)
[20] = biological target: T4, Recombinant Human Fc gamma RI/CD64 …; assay: SPR (Biacore T200), RU at 4.7 µM antibody, anti-LPS antibody O11-1111

B1: LALA-DG variant of the anti-CD70 antibody vorsetuzumab (IgG1) (antibody, name in EU numbering)
heavy: QVQLVQSGAEVKKPGASVKVSCKASGYTFTNYGMNWVRQAPGQGLKWMGWINTYTGEPTYADAFKGRVTMTRDTSISTAYMELSRLRSDDTAVYYCARDYGDYGMDYWGQGTTVTVSSASTKGPSVFPLAPSSKSTSGGTAALGCLVKDYFPEPVTVSWNSGALTSGVHTFPAVLQSSGLYSLSSVVTVPSSSLGTQTYICNVNHKPSNTKVDKRVEPKSCDKTHTCPPCPAPEAAGGPSVFLFPPKPKDTLMISRTPEVTCVVVGVSHEDPEVKFNWYVDGVEVHNAKTKPREEQYNSTYRVVSVLTVLHQDWLNGKEYKCKVSNKALPAPIEKTISKAKGQPREPQVYTLPPSREEMTKNQVSLTCLVKGFYPSDIAVEWESNGQPENNYKTTPPVLDSDGSFFLYSKLTVDKSRWQQGNVFSCSVMHEALHNHYTQKSLSLSPGK
light: DIVMTQSPDSLAVSLGERATINCRASKSVSTSGYSFMHWYQQKPGQPPKLLIYLASNLESGVPDRFSGSGSGTDFTLTISSLQAEDVAVYYCQHSREVPWTFGQGTKVEIKRTVAAPSVFIFPPSDEQLKSGTASVVCLLNNFYPREAKVQWKVDNALQSGNSQESVTEQDSKDSTYSLSSTLTLSKADYEKHKVYACEVTHQGLSSPVTKSFNRGEC
notes: also called Anti-CD70 Antibody LALA-DG
binding response (RU) [1]: -3.7 RU | binding response (RU) [2]: -2.1 RU | binding response (RU) [3]: 1.3 RU | binding result [4]: no binding (tested: 4.7 µM) | RU value relative to the LALA variant [5]: ~0.005 fold

B2: L234A/L235A/D265G (LALA-DG) variant of IgG1 WT of the anti-EGFR antibody panitumumab (antibody)
heavy: QVQLQESGPGLVKPSETLSLTCTVSGGSVSSGDYYWTWIRQSPGKGLEWIGHIYYSGNTNYNPSLKSRLTISIDTSKTQFSLKLSSVTAADTAIYYCVRDRVTGAFDIWGQGTMVTVSSASTKGPSVFPLAPSSKSTSGGTAALGCLVKDYFPEPVTVSWNSGALTSGVHTFPAVLQSSGLYSLSSVVTVPSSSLGTQTYICNVNHKPSNTKVDKRVEPKSCDKTHTCPPCPAPEAAGGPSVFLFPPKPKDTLMISRTPEVTCVVVGVSHEDPEVKFNWYVDGVEVHNAKTKPREEQYNSTYRVVSVLTVLHQDWLNGKEYKCKVSNKALPAPIEKTISKAKGQPREPQVYTLPPSREEMTKNQVSLTCLVKGFYPSDIAVEWESNGQPENNYKTTPPVLDSDGSFFLYSKLTVDKSRWQQGNVFSCSVMHEALHNHYTQKSLSLSPGK
light: not shown
notes: Mutations in both CH2 domains; positions are EU numbers
RU value relative to the other variants [6]: ≤ 0.5 fold | RU value relative to the LALA-DA variant [7]: ~0.1 fold | koff [8]: 2.2 s⁻¹ | Kd [9]: 5.8 nM | binding response (RU) [10]: 3.8 RU | binding response (RU) [11]: 89 RU | binding response (RU) [12]: 19 RU | binding response (RU) [13]: -0.3 RU | binding response (RU) [14]: 8.8 RU | binding response (RU) [15]: -2.7 RU | binding response (RU) [16]: 15 RU | binding response (RU) [17]: -4.4 RU

B3: LALA-DG variant of the anti-LPS antibody O11-1111 (IgG1) (antibody)
heavy: QVQLVQSGAEVKKPGASVKVSCKASGYTFTSYWINWVRQAPGQGLEWMGNIYPGSSSINYNEKFKSRVTITADTSTSTAYMELSSLRSEDTAVYYCARTIYNYGSSGYNYAMDYWGQGTLVTVSSASTKGPSVFPLAPSSKSTSGGTAALGCLVKDYFPEPVTVSWNSGALTSGVHTFPAVLQSSGLYSLSSVVTVPSSSLGTQTYICNVNHKPSNTKVDKRVEPKSCDKTHTCPPCPAPEAAGGPSVFLFPPKPKDTLMISRTPEVTCVVVGVSHEDPEVKFNWYVDGVEVHNAKTKPREEQYNSTYRVVSVLTVLHQDWLNGKEYKCKVSNKALPAPIEKTISKAKGQPREPQVYTLPPSREEMTKNQVSLTCLVKGFYPSDIAVEWESNGQPENNYKTTPPVLDSDGSFFLYSKLTVDKSRWQQGNVFSCSVMHEALHNHYTQKSLSLSPGK
light: DIVMTQSPDSLAVSLGERATINCKASENVGNSVSWYQQKPGQPPKLLIYGASNRYTGVPDRFSGSGSGTDFTLTISSLQAEDVAVYYCGQSYSYPYTFGQGTKVEIKRTVAAPSVFIFPPSDEQLKSGTASVVCLLNNFYPREAKVQWKVDNALQSGNSQESVTEQDSKDSTYSLSSTLTLSKADYEKHKVYACEVTHQGLSSPVTKSFNRGEC
notes: substitutions in EU numbering; also called Anti-LPS Antibody LALA-DG
binding response (RU) [1]: -7.1 RU | binding response (RU) [2]: -7.2 RU | binding response (RU) [3]: -2.6 RU | binding response (RU) [18]: -2.2 RU | RU value relative to that of the LALA variant [19]: ~0.0033 ratio (LALA-DG RU / LALA RU) | RU value relative to the LALA variant [20]: ~0.0033 fold
